{"source": "paper doi:10.1101/2022.06.02.22275920v1", "about": "“Glucagon/GLP-1 receptor co-agonist NNC9204-1177 reduced body weight in adults with overweight or obesity but was associated with safety issues” (medRxiv, 2022)", "origin": "cited, not measured here", "details": "type 2 diabetes; 1.0 mg dose level", "excerpt": "Indeed, GLP-1 RAs are known to have chronotropic effects; for example, increases in pulse rate have been reported in participants with type 2 diabetes in a MAD trial with semaglutide and in trials with dulaglutide and a dual glucose-dependent insulinotropic polypeptide (GIP) and GLP-1 RA [33]. However, the increase in heart rate for NN1177 far exceeds that observed for semaglutide; for example in the SUSTAIN 6 cardiovascular outcomes trial for semaglutide in type 2 diabetes, a placebo ...", "data": [{"substance": "semaglutide", "values": [{"measurement": "placebo-corrected heart rate increase", "result": 3.2, "unit": "bpm"}]}]}
